{"source": "patent US6287561", "molecular_target": "gp120 of HIV-1 RF strain (HIV-1 RF strain) (UniProt P04579)"}
{"substance": "LMW-UK (from UniProt P00749)", "values": [{"measurement": "p24 antigen level in H9 cell supernatants, percent of control", "result": "4 % of control"}]}
